The text below walks through data of the nanobody polyreactivity screen of Harvey et al. (2022).

A short description of this series: yeast display, Sf9 membrane polyspecificity reagent, FACS + sequencing; frameworks hold sequencing errors. A digest of the protocol:
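Polyreactivity labels are assigned by the sorting gate from which each nanobody was recovered. The gates were low and high (top ~1%), set on anti-HA fluorescence for expression and streptavidin fluorescence for reagent binding. Before sorting, galactose-induced (36–48 hours) yeast display cells were stained for 1 hour at 4 °C with 10% biotinylated, detergent-solubilized Sf9 membrane reagent.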
Turning to “QVQLVESGGGLVQGGGSLRLSCAASGRTFQTNVMGWYRPAPGKERELVAAITLSGGSTNYADSVKGRFTISRDNAKNTVYVQMNSLKPEDTAVYYCNAERRYRHQWTPHYEYDYWGQGTQVSVSS”, the “polyreactivity (PSR sort gate)” value was “low polyreactivity”.
Turning to “QVQLVESGGGLVQGGGSLRLSCAASGRTFYWNAMGWYRQAPGKERELVAAIRWRGGNTYYADSVKGRFTISRDIEKNTVYLQMNSLKPEDSAVYYCAAAGGNTEMGYWGQGSQVTVSS”, the “polyreactivity (PSR sort gate)” value is reported as “high polyreactivity”.
Regarding “QVQLVESGGGLVQGGGSLRLSCAASGSIFPGNAMGCYRQAPGKERELLAVIDFSGASTYYADSLKGRFTISRDNAKNTVYLQMKSLKPEATAVYWGQGTQVTVSS”, the “polyreactivity (PSR sort gate)” value is “low polyreactivity”.
On to “QVQLVESGGGLVQGGGTLRLSCAASGSILSRNTMGWYRQAPGKEREFVADISKGDSTYYADSVKGRFTISRDNAKNTGYLQMNILKPVDTAVYYCAVDSWRRAMWYYGRYGYWGQGTEVTVSS”, for which the “polyreactivity (PSR sort gate)” value was “low polyreactivity”.
As to “QVQLVESGGGLVQPGGRLRLSCEASGIFTDYAMGCYRQEPGKERELVAAISWRGGSTYFADSVKGRFTISRDNAKKTVYLQMHSLKPEDTAVFYCAAGVRGGGGRYRYGYWGQGTQVTVSS”, the “polyreactivity (PSR sort gate)” value is “high polyreactivity”.
The result for “QVQLVESGGGLVQPGGSLLLRGAASGSIYYRNVMGWYRPAPGKERELVAAISSGGNTYYADSVKGRFTISRDNAKNTVYLQMNSLKPVDTAVYYCNAEYEGLSFGWYEYWYDYWGQGTQVTVSS” reads “high polyreactivity”; that for “QVQLVESGGGLVQPGGSLRLSCAASGFIFYWYAMGWYRQAPGKERELVAAISYDTGSTYYADSVKGRFTISRDNAKITVYFQINSLKPEDTAVYYCAADASWRVYTGYYWGQGTQVTVSS”, “high polyreactivity”.
Then “QVQLVESGGGLVQPGGSLRLSCAASGFTFIRNVMGWYRQAPGKERELVARITYSSGSTYYADSVKGRFTISRDNAKNTVYLQMNSLKPEDTAVYYCAVRLYSYLYNPFNYWGQGTQVTVSS”, with “high polyreactivity”.
Regarding “QVQLVESGGGLVQPGGSLRLSCAASGGIFLGNAMGGYRQAPGKERELVAGITWSGGRTYYADSVKGRFTISRDNAKNTVYLQMTSLKPEDTAVYDCNKDTPGTRFYGIYSYDYWGQGTQVTVSS”, the “polyreactivity (PSR sort gate)” value is given as “low polyreactivity”.
Consider “QVQLVESGGGLVQPGGSLRLSCAASGIIFSFYTIGWDRQEPGKEMELVAAISSSGGRTFYADSVKGRFTISRDNAKNTVYLQMNSLKPEDTAVYYCYAAHTREYYWGQGTQVTLSS”, for which the “polyreactivity (PSR sort gate)” value is “high polyreactivity”.
Then “QVQLVESGGGLVQPGGSLRLSCAASGRIFGWYAMGWYRQAPGKERELVAAITWSGTSTYYADSVKGRFTISRDNAKNTVYLQMNSLKPEDTAVYYCAADSLRGSAPTYYSTLEYWGQGTQVTVSS”, with “low polyreactivity”; and “QVQLVESGGGLVQPGGSLRLSCAASGRISYVYTMGWYRQAPGKERELVAAISKSGGSTSYADSVKGRFTISRDNAKNTVYLQMNSLKPEDTAVYYCAAGRYYYTYAYDHWGQGTQVTLSS”, with “high polyreactivity”; and “QVQLVESGGGLVQPGGSLRLSCAASGRTFGDYVMGWDREAPGKERELVAVITYRGGSTYYADSVKGRFTISRDNAKNTVHLQMNSLKPEDTAVYYCAAAARAGLKRYYYWGQGTQVTVSS”, with “high polyreactivity”.
The result for “QVQLVESGGGLVQPGGSLRLSCAASGRTFRTNAMGWSRQEPGKERELVAAISTGGGITNYADSVKGRFTISRDNAKNTVYLQMNCLKPEDTAVYYCAARLAYNAIGYYYWGQGTQVTVSS” reads “low polyreactivity”; that for “QVQLVESGGGLVQPGGSLRLSCAASGRTFTGYTMGWYRQAPGKERELVAAIRWSGDRTYYADSVKGRFTISRDNAKNTVYLQMNSLKPEDTAVYYCAAARYVYGKFVGFDYWGQGTQVNVSS”, “high polyreactivity”.
The result for “QVQLVESGGGLVQPGGSLRLSCAASGRTFVPYAMGWYRQAPGKEREFVAVITWGGGSTYYADSVKGRFTISRDNAKNTVYLQMNSLKPEDTAVYYCDARVYYHYDYWGQGTQVTVSS” reads “high polyreactivity”.
“QVQLVESGGGLVQPGGSLRLSCAASGSIFTPNAMGWYRPAPGKERELVAAISSSSDRTYYADSVKGRFTISRDNAKNTVYLQMNSLKPEDTAVYYCAALSKTRGGYWGHGTQVTVSS”: the “polyreactivity (PSR sort gate)” value is “high polyreactivity”.
As to “QVQLVESGGGLVQPGGSLRLSCAASGSTFIEYSMGWYRQAPGKERELVATIRGTGSTNYADSVKGRFTISRDNAKNTVYLQMNSLKPEDTAVYYCMKKPDPRWYYWGDYWGQGTQVTVSS”, the “polyreactivity (PSR sort gate)” value is “low polyreactivity”.
Then “QVQLVESGGGLVQSGGSIRLSCAASGSTFDHYTMGWYRQAPGKERELVAAINRIGDSTYYADSVKGRFTISRDNAKNTVYLQMNSLKPEDTAVYDCAARHVPRFNKYGYWGQGTQVNVSS”, with “high polyreactivity”; and “QVQLVESGGGLVQSGGSLRLSCAASGFIFGEYTMGWNRQAPGKEREFVAAISWSGGSTSYADSVKGRFTISRDNAKNTVYLQMNSLKPEDTAVYYCAARYGSDYDYWGQGTQVTVSS”, with “low polyreactivity”.
The result for “QVQLVESGGGLVQSGGSLRLSCAASGFIFRWYAMGWYRQAPGKERELVASIDWSGTRTNYADSVKGRFTISRDNAKNTVYLQMNSLKPEDTAVYYCNAVPTSLGETDYDYWGQGTQVTVSS” reads “low polyreactivity”; that for “QVQLVESGGGLVQSGGSLRLSCAASGFTFGGYAMGWYRQAPAKERELVAAISQSGGRTYYADSVKGRFTISRDNAKITVYLQMNSLKPEDTAVYYCAKPSTTYYQRGDYWGQGTQVTVSS”, “high polyreactivity”.
The result for “QVQLVESGGGLVQSGGSLRLSCAASGFTFPNNAMGWYRLAPGKERELVAAITWSGGSTYADSVKGRFTISRDNAKNTVYLQMNSLKPEETAVYFCNTRGTYLSKTLPSAYDYWGQGTQVTVSS” reads “low polyreactivity”; that for “QVQLVESGGGLVQSGGSLRLSCAASGFTFSRYAMGWYRQAPGKERELVAAINWSGGSTYYADSVKGRFTISRDNAKNTVYLQMNSLKPEDTAVYSCAKPAGGSGYDSWGQGTQVTVSS”, “high polyreactivity”; that for “QVQLVESGGGLVQSGGSLRLSCAASGIKFYYNARGWYRPAPGKERELVARITWRAGSTYYADSVKGRFTISRDNAKNTVYLQMNSLKPEDTAVYYCNADHDGLGYYFWGQGTQVTVSS”, “high polyreactivity”.
As to “QVQLVESGGGLVQSGGSLRLSCAASGITTRTYAMGWYRQAPGKDRELVAAISDSGDRTYYADSVKGRFTISRDNAKNTVYLQMNSLKPEDTAVYYCAVDAPGPRGEYWGQGTKVTVSS”, the “polyreactivity (PSR sort gate)” value is “low polyreactivity”.
The result for “QVQLVESGGGLVQSGGSLRLSCAASGRIFGKYAMGWYRQAPGKERELVARISFSGGTTYYADSVKGRFTISRDNAKNTVYLQMYSLKPEDTAVYYCSARSVWSQRWAYDSWGQGTQVTVSS” reads “high polyreactivity”; that for “QVQLVESGGGLVQSGGSLRLSCAASGRTFYHYAMGWYRQAHGKERELVATITRNGGITYYADSVKGRFTISRDNAKNTVYLQMNSLKPEDTAVYYCIKRWGGPIQFDYWGQGTEVTVSS”, “low polyreactivity”.
Take “QVQLVESGGGLVQSGGSLRLSCAASGRTFYYYTMGWYRPAPGKVRELVAAIYRVGSTYYADSVKGRFTISRDNAKNTVYLQMNSLKPEDTADYYCNAVLRFGWYWVDYWGQGTQVTVSS”: the “polyreactivity (PSR sort gate)” value is recorded as “high polyreactivity”.
With “QVQLVESGGGLVQSGGSLRLSCAASGSIFSAYAMGWYRQAPGKEREFVAAITRRGGNTYYADSVKGRFTISRDNAQNTVYLQMNSLKPEDSAVYYCAADAGGGPFDYWGQGTQVSVSS”, the “polyreactivity (PSR sort gate)” value is “low polyreactivity”.
